The results in this text go back to patent US20140038834.

Data set [1] deals with dephosphorylated HPLC-purified bovine NfH (treated with alkaline phosphatase).
Data set [2] deals with HPLC-purified bovine NfH (phosphorylated).

In the case of “enterokinase (EK, EC 3.4.21.9, Roche, Cat No 11 334115001)”, the “limited proteolysis, cleavage products seen by immunoblot” value in data set [1] is “The described in vivo cleavage products can be reproduced in vitro by incubation of purified NfH with enterokinase (FIG. 2D, lane 4 and FIG. 2E, lane 8)”; in data set [2], “The described in vivo cleavage products can be reproduced in vitro by incubation of purified NfH with enterokinase (FIG. 2D, lane 4 and FIG. 2E, lane 8)”.
